Numbering of substitutions follows the chain as printed. Where no end group is shown, it is not given here.

The target of assay [1] is human Nav1.7 channel (type IX voltage-gated sodium channel alpha subunit) (human, UniProt Q15858 1-1988). Kind of assay: cell-based or functional assay.
Assay [2] concerns the target T1, A32-CTLESIMNTLESEEDFRKY (cyclic) (human, also: biotinylated in screening assay, position not given here).
T1 construct: Human Nav1.7 peptide; also called Nav1.7 peptide A32
T1 peptide: cyclo(CTLESIMNTLESEEDFRKY)
The assay can be described thus: peptide specificity; bead-based FMAT screen on biotinylated peptide. The method, then: (§1) SLAM was performed using substantially the methods described in Tickle et al. 2009 (JALA, Vol. 14, number 5, p303-307). Briefly, SLAM cultures were set up using rabbit splenocytes or PBMC and supernatants were first screened for their ability to bind biotinylated peptide in a bead-based assay in the FMAT. […] Positives from this screen were then put through a negative screen to identify non-specific antibodies.

The target in assay [3] is T2, B11.5 Cyclo[biotinyl-PEG-cysEHYNMTSEFEE] (not fully specified; cyclic; biotinyl-PEG on the cysteine).
T2 construct: also called Nav 1.5 E1 peptide
T2 peptide: CEHYNMTSEFEE
Kind of assay: peptide binding ELISA, biotinylated peptide on streptavidin. As to the method:
(§2) Nunc 96 well plates were coated overnight at 4° C. in 5 ug/ml Streptavidin (Jackson 016-000-114) 100 ul/well in carbonate coating buffer. Plates were washed four times in PBS/tween and 200 ul/well of block (1% BSA in PBS) was added for 1 hour at RT. Plates were washed four times in PBS/tween and 100 ul/well of biotinylated peptide at 5 ug/ml was added for 1 hour at RT. Plates were washed four times in PBS/tween and 100 ul/well of antibody added (starting at 10 ug/ml diluting in block in half logs down the plate) for 1 hour at RT. Plates were washed four times in PBS/tween and […] goat anti rabbit Fc HRP (Jackson 111-036-046) added for 1 hour at RT. Plates were washed four times in PBS/tween and 100 ul/well TMB (3,3′,5,5′ Tetramethylbenzidine) solution added. 50 ul/well of NaF was added to stop reaction and absorbance read at 630 nm.
Background: In an ELISA, binding on a coated surface is turned into a signal by an enzyme label.

In assay [4] the target is T3, B11.4 Cyclo[biotinyl-PEG-cysEHYPMTEHFDN] (not fully specified (N-terminus, bridges); printed as Cyclo[biotinyl-PEG-cysEHYPMTEHFDN]; also: biotinyl-PEG on the cysteine).
T3 construct: also called Nav 1.4 E1 peptide
T3 peptide: CEHYPMTEHFDN
Described as above. As to the method: as §2

The target in assay [5] is T4, B11.6 Cyclo[biotinyl-PEG-cysEHHPMTPQFEH] (not fully specified; cyclic; biotinyl-PEG on the cysteine).
T4 construct: also called Nav 1.6 E1 peptide
T4 peptide: CEHHPMTPQFEH
The assay is described as above. As to the method: as §2

Assay [6] deals with T5, B11.8 Cyclo[biotinyl-PEG-cysEHHGMSPTFEA] (not fully specified; cyclic; biotinyl-PEG on the cysteine).
T5 construct: also called Nav 1.8 E1 peptide
T5 peptide: CEHHGMSPTFEA
The assay is described as above. The method, then:
as §2

The target in assay [7] is T6, B11.2/3 Cyclo[biotinyl-PEG-cysEHYPMTEQFSS] (not fully specified (N-terminus, bridges); printed as Cyclo[biotinyl-PEG-cysEHYPMTEQFSS]; also: biotinyl-PEG on the cysteine).
T6 construct: also called Nav 1.2 and 1.3 E1 peptide
T6 peptide: CEHYPMTEQFSS
The assay is described as above. The method, then:
as §2

For assay [8], the target named is T7, B11.9 Cyclo[biotinyl-PEG-cysEHHKMEASFEK] (not fully specified; cyclic; biotinyl-PEG on the cysteine).
T7 construct: also called Nav 1.9 E1 peptide
T7 peptide: CEHHKMEASFEK
Described as above. The method, then: as §2

Assay [9] addresses T8, B11.1 Cyclo[biotinyl-PEG-cysEHYPMTDHFNN] (not fully specified (N-terminus, bridges); printed as Cyclo[biotinyl-PEG-cysEHYPMTDHFNN]; also: biotinyl-PEG on the cysteine).
T8 construct: also called Nav 1.1 E1 peptide
T8 peptide: CEHYPMTDHFNN
The description is as above. The method, then: as §2

Assay [10] concerns the target T9, B11.7 Cyclo[biotinyl-PEG-cysPMTEEFKN] (not fully specified; cyclic; biotinyl-PEG on the cysteine).
T9 construct: also called B11.7 peptide; Nav 1.7 peptide
T9 peptide: CPMTEEFKN
The assay can be described thus: peptide binding ELISA (FIG. 3K legend). The method, then:
as §2

A further assay deals with T10, B11-CPMTEEFKN (cyclic) (human, also: biotinylated in screening assay, position not given here).
T10 construct: Human Nav1.7 peptide; also called Nav1.7 peptide B11
T10 peptide: cyclo(CPMTEEFKN)
Kind of assay: peptide specificity; bead-based FMAT screen on biotinylated peptide. As to the method: as §1

The target in assay [11] is T9, B11.7 Cyclo[biotinyl-PEG-cysPMTEEFKN]. Kind of assay: peptide binding ELISA (FIG. 3J legend). As to the method: as §2

B1: CA167_00932 (antibody, rabbit IgG1, V domains shown)
VH: QSLEESGGRLVTPGTPLTLTCTVSGFSLSRYWMSWVRQAPGKGLEWIGNIGGGSGSTLYAPWAKGRSTISKTSTTVDLKITSPTTEDTATYFCGRYVKNGGGYRLDLWGPGTLVTVS
VL: AAVLTQTPSSVSAAVGGTVTIKCQSSQSVYNNNEFSWYQQKPGQPPKLLIYDASKLASGVPSRFSGSGSGTQFTLTISGVQCDDVATYYCLGGYNDDTNRWAFGGGTEVVVE
notes: Rabbit monoclonal from rabbit 3822; also called antibody 932
On to B1, for which the “Nav1.7 inhibition (%) at 25 µg/ml, automated patch clamp, HEK cells” value (shortened to “Nav1.7 inhibition (%) at 25 µg/ml”) in assay [1] amounted to 27%. In addition, the binding result in assay [2] is “binds”.

B2: CA167_01080 (antibody, rabbit IgG1, V domains shown)
VH: QSLEESGGRLVTPETPLTLTCTASGIDLSKWPMTWVRQAPGKGLEWIGIIGRSGSTNYASWAKGRFTISKTSTTVDLKMTSPTTEDTATYFCARGGSYYDLWGQGTLVTVS
VL: AQVLTQTASPVSAAVGNTVTITCQSSQSVWKNNDLSWYQQKLGQPPKLLIYYASTLASGVSSRFKASGSGTQFTLTISDVQCDDAGTYYCVGSYDCSSADCNAFGGGTKVVVK
notes: Rabbit monoclonal from rabbit 3824
For B2, the binding result in assay [3], in assay [4], in assay [5], in [6], in assay [7] and in assay [8] was “no binding (tested: antibody starting at 10 ug/ml)” in each case. Moreover, the results for the binding result (in assay [9]; in assay [10]; with B11-CPMTEEFKN (cyclic)) were “no binding (tested: antibody starting at 10 ug/ml)”, “binds” and “binds”, respectively. Moreover, the “Nav1.7 inhibition (%) at 25 µg/ml” value in assay [1] amounted to 46%.

B3: CA167_00983 (antibody, rabbit IgG1, V domains shown)
VH: QSVEESGGRLVTPGTPLTLTCTVSGFSLSNYAMSWVRQAPGKGLEWIGIIGKSGSTAYASWAKGRFTISRTSTTVDLEITSPTTEDTATYFCVRFVLLWGPGTLVTVS
VL: B2 VL with N17G, T22N, W30Y, S36A, L42P, A66G, Q72E, V80A, G86A, V91L
notes: as for B2
For B3, the binding result is reported as “binds” in [11]; “no binding (tested: antibody starting at 10 ug/ml)” in [3]; “no binding (tested: antibody starting at 10 ug/ml)” in assay [4]; “no binding (tested: antibody starting at 10 ug/ml)” in assay [5]; “no binding (tested: antibody starting at 10 ug/ml)” in assay [6]; “no binding (tested: antibody starting at 10 ug/ml)” in assay [7]. Besides, the binding result in assay [8] is “no binding (tested: antibody starting at 10 ug/ml)”; in assay [9], “no binding (tested: antibody starting at 10 ug/ml)”; with B11-CPMTEEFKN (cyclic) it was “binds”. In assay [1], the “Nav1.7 inhibition (%) at 25 µg/ml” value turned out to be 41%.

These data come from patent US20110135662A1 (UCB, published 2011).
